Measured values as given in patent US12440565 (ZSKY BIOTECH, dated 2025).

Target: CD40 on the surface of mature dendritic cells (mDC) (human, UniProt P25942 21-277)
Test: cell-based or functional assay

Chain of CD40 on the surface of mature dendritic cells (mDC) (P25942 21-277): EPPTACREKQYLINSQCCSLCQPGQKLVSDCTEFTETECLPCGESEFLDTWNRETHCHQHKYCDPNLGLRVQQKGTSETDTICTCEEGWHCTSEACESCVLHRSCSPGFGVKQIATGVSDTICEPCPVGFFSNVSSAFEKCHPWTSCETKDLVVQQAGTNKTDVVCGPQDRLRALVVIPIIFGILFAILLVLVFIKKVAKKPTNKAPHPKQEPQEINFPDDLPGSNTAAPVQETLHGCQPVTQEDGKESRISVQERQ

B1: CD40-PD-L1-IgG4 bispecific antibody (bispecific antibody)
light 1: DIQMTQSPSSLSASVGDRVTIKCQASQSISSRLAWYQQKPGKPPKLLIYRASTLASGVPSRFSGSGSGTDFTLTISSLQPEDVATYYCQCTGYGISWPIGGGTKVEIKRTVAAPSVFIFPPSDEQLKSGTASVVCLLNNFYPREAKVQWKVDNALQSGNSQESVTEQDSKDSTYSLSSTLTLSKADYEKHKVYACEVTHQGLSSPVTKSFNRGEC
heavy 1: not shown
light 2: QVQLVQSGAEVKKPGASVKVSCKASGYTFTSYWMHWVRQAPGQGLEWMGRIGPNSGFTSYNEKFKNRVTMTRDTSTSTVYMELSSLRSEDTAVYYCARGGSSYDYFDYWGQGTTVTVSSASVAAPSVFIFPPSDRKLKSGTASVVCLLNNFYPREAKVQWKVDNALQSGNSQESVTEQDSKDSTYSLSSTLTLSKADYEKHKVYACEVTHQGLSSPVTKSFNRGEC
heavy 2: DIVLTQSPASLAVSPGQRATITCRASESVSIHGTHLMHWYQQKPGQPPKLLIYAASNLESGVPARFSGSGSGTDFTLTINPVEAEDTANYYCQQSFEDPLTFGQGTKLEIKASTKGPSVFPLAPCSRSTSESTAALGCLVEDYFPEPVTVSWNSGALTSGVHTFPAVLQSSGLYSLSSVVTVPSSSLGTQTYTCNVDHKPSNTKVDEKVESKYGPPCPPCPAPEFEGGPSVFLFPPKPKDTLMISRTPEVTCVVVDVSQEDPEVQFNWYVDGVEVHNAKTKPREEQFNSTYRVVSVLTVLHQDWLNGKEYKCKVSNKGLPSSIEKTISKAKGQPREPQVCTLPPSQEEMTKNQVSLSCAVKGFYPSDIAVEWESNGQPENNYKTTPPVLDSDGSFFLVSRLTVDKSRWQEGNVFSCSVMHEALHNHYTQKSLSLSLGK
How did the “increase rate of CD83 positive ratio over control, bispecific antibody” value turn out when B1 was run?
The value was 19%.
